B1: Protein phosphatase 1H (Homo sapiens), Q9ULR3 (parent)
chain: MLTRVKSAVANFMGGIMAGSSGSEHGGGSCGGSDLPLRFPYGRPEFLGLSQDEVECSADHIARPILILKETRRLPWATGYAEVINAGKSTHNEDQASCEVLTVKKKAGAVTSTPNRNSSKRRSSLPNGEGLQLKENSESEGVSCHYWSLFDGHAGSGAAVVASRLLQHHITEQLQDIVDILKNSAVLPPTCLGEEPENTPANSRTLTRAASLRGGVGAPGSPSTPPTRFFTEKKIPHECLVIGALESAFKEMDLQIERERSSYNISGGCTALIVICLLGKLYVANAGDSRAIIIRNGEIIPMSSEFTPETERQRLQYLAFMQPHLLGNEFTHLEFPRRVQRKELGKKMLYRDFNMTGWAYKTIEDEDLKFPLIYGEGKKARVMATIGVTRGLGDHDLKVHDSNIYIKPFLSSAPEVRIYDLSKYDHGSDDVLILATDGLWDVLSNEEVAEAITQFLPNCDPDDPHRYTLAAQDLVMRARGVLKDRGWRISNDRLGSGDDISVYVIPLIHGNKLS

From IntAct's records for PubMed 31663853 come the findings set out here.

The experiment covers variants of B1. To be noted: with rab10_human RAB10, P61026.
rab10_human RAB10, P61026, sequence (P61026 whole entry): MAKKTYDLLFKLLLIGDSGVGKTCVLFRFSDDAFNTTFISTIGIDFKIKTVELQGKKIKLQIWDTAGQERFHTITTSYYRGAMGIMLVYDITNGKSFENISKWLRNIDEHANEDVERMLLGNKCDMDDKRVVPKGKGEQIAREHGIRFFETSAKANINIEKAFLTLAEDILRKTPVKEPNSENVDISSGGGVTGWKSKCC
Take MLTRVKSAVANFMGGIMAGSSGSEHGGGSCGGSDLPLRFPYGRPEFLGLSQDEVECSADHIARPILILKETRRLPWATGYAEVINAGKSTHNEDQASCEVLTVKKKAGAVTSTPNRNSSKRRSSLPNGEGLQLKENSESEGVSCHYWSLFDGHAGSGAAVVASRLLQHHITEQLQDIVDILKNSAVLPPTCLGEEPENTPANSRTLTRAASLRGGVGAPGSPSTPPTRFFTEKKIPHECLVIGALESAFKEMDLQIERERSSYNISGGCTALIVICLLGKLYVANAGASRAIIIRNGEIIPMSSEFTPETERQRLQYLAFMQPHLLGNEFTHLEFPRRVQRKELGKKMLYRDFNMTGWAYKTIEDEDLKFPLIYGEGKKARVMATIGVTRGLGDHDLKVHDSNIYIKPFLSSAPEVRIYDLSKYDHGSDDVLILATDGLWDVLSNEEVAEAITQFLPNCDPDDPHRYTLAAQDLVMRARGVLKDRGWRISNDRLGSGDDISVYVIPLIHGNKLS [D288A]: the “effect of a mutation on the interaction” value is on record as “causing an interaction”. Regarding MLTRVKSAVANFMGGIMAGSSGSEHGGGSCGGSDLPLRFPYGRPEFLGLSQDEVECSADHIARPILILKETRRLPWATGYAEVINAGKSTHNEDQASCEVLTVKKKAGAVTSTPNRNSSKRRSSLPNGEGLQLKENSESEGVSCHYWSLFDGHAGSGAAVVASRLLQHHITEQLQDIVDILKNSAVLPPTCLGEEPENTPANSRTLTRAASLRGGVGAPGSPSTPPTRFFTEKKIPHECLVIGALESAFKEMDLQIERERSSYNISGGCTALIVICLLGKLYVANAGESRAIIIRNGEIIPMSSEFTPETERQRLQYLAFMQPHLLGNEFTHLEFPRRVQRKELGKKMLYRDFNMTGWAYKTIEDEDLKFPLIYGEGKKARVMATIGVTRGLGDHDLKVHDSNIYIKPFLSSAPEVRIYDLSKYDHGSDDVLILATDGLWDVLSNEEVAEAITQFLPNCDPDDPHRYTLAAQDLVMRARGVLKDRGWRISNDRLGSGDDISVYVIPLIHGNKLS [D288E], the “effect of a mutation on the interaction” value was “causing an interaction”.
